Laboratory results: the supplement of paper PMC11908140

B1: library; numbered along this chain (parent)
chain: MRKPRAAVGSGHRKQAASQEGRQKHAKNNSQAKPSACDGLARQPEEVVLQASVSSYHLFRDVAEVTAFRGSLLSWYDQEKRDLPWRRRAEDEMDLDRRAYAVWVSEVMLQQTQVATVINYYTGWMQKWPTLQDLASASLEEVNQLWAGLGYYSRGRRLQEGARKVVEELGGHMPRTAETLQQLLPGVGRYTAGAIASIAFGQATGVVDGNVARVLCRVRAIGADPSSTLVSQQLWGLAQQLVDPARPGDFNQAAMELGATVCTPQRPLCSQCPVESLCRARQRVEQEQLLASGSLSGSPDVEECAPNTGQCHLCLPPSEPWDQTLGVVNFPRKASRKPPREESSATCVLEQPGALGAQILLVQRPNSGLLAGLWEFPSVTWEPSEQLQRKALLQELQRWAGPLPATHLRHLGEVVHTFSHIKLTYQVYGLALEGQTPVTTVPPGARWLTQEEFHTAAVSTAMKKVFRVYQGQQPGTCMGSKRSQVSSPCSRKKPRMGQQVLDNFFRSHISTDAHSLNSAAQ

Variants of: B1
Experiment: 8OG:A repair function score (normalized; synonymous = 0, nonsense = -1) (normalized log-likelihood score); higher = more repair activity (WT-like)
Conditions: with 8OG:A DNA repair reporter (GFP) in HEK-293 MUTYH KO cells
Method: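 Saturation mutagenesis (NNN codon scan) of the MUTYH cDNA (521-aa nuclear isoform NM_001048174.1 / NP_001041639), stably expressed under doxycycline induction in HEK-293 MUTYH knockout cells. Cells were co-transfected with an 8OG:A-bearing GFP repair reporter plus mCherry and sorted 72 h later into GFP+ and GFP− bins, three replicates per tile. The Rosace log2 enrichment (GFP+ vs GFP−) was converted per tile to a normalized function score with synonymous variants centered at 0 and nonsense variants (codons 1-471) at -1; low-abundance variants were removed.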

8OG:A repair function score, by site and new letter:
E79: W -0.0018 | N -0.0384 | Q -0.0185 | M -0.00235 | P -0.189 | R 0.00654 | H -0.0574 | G -0.00351 | C -0.0344 | D -0.145 | T 0.00587 | K 0.0062 | V -0.000865 | L -0.0186 | F 0.000542 | Y -0.00762 | I 0.00691 | A 0.00477 | S -0.00165
D82: K -0.079 | R -0.0624 | A -0.0548 | L -0.0723 | H -0.148 | V -0.0236 | M -0.077 | G -0.0955 | S -0.0969 | Q -0.0442 | T -0.0186 | C -0.0489 | E -0.035 | F -0.22 | W -0.00177 | P -0.00741 | I -0.0384 | N 0.00375 | Y -0.0661
R86: D -1.26 | W -1.23 | C -0.587 | Y -1.03 | H -1.85 | I -0.915 | M -1.93 | N -1.17 | Q -2.68 | T -0.606 | E -2.16 | P -0.841 | A -0.934 | V -1.33 | G -1.82 | F -1.75 | L -0.926 | S -1.03 | K -0.756
R81: G -0.905 | I -0.704 | H -0.3 | M -0.492 | Y -0.359 | N -0.365 | S -0.535 | Q -0.483 | F -1.5 | A -0.345 | L -0.31 | T -0.765 | V -0.851 | K -0.209 | P -0.88 | E -0.678 | D -0.524 | W -0.422 | C -1.02
P84: D -0.332 | V -0.206 | M -1.8 | E -0.125 | C -0.445 | G -0.775 | S -0.324 | L -0.233 | W -1.29 | I -0.257 | T -0.154 | N -0.796 | A -0.138 | F -0.723 | K -0.876 | Q -0.242 | H -0.482 | Y -0.697 | R -1.06
L83: W -0.827 | K -0.987 | D -1.02 | Q -0.947 | C -0.323 | I -0.196 | N -0.585 | E -0.902 | A -0.379 | Y -0.478 | M -0.533 | H -0.597 | R -0.559 | S -0.387 | V -0.316 | T -0.104 | G -0.971 | P -0.673 | F -0.285
K80: P -0.105 | Y -0.271 | S -0.227 | N -0.162 | L -0.278 | D -1.37 | A -7.55e-05 | R -0.0152 | T -0.469 | Q -0.0315 | H 0.00371 | V -0.423 | G -0.194 | C -0.0206 | F -0.364 | W -0.847 | E -0.31 | I -0.35 | M -0.162
Q78: V 0.00652 | Y -0.12 | W -0.0301
W85: P -1.05 | R -1.51 | T -1.61 | M -0.682 | C -1.57 | V -1.12 | H -2.53 | D -1.51 | E -1.28 | F -0.238 | G -2.15 | S -1.22 | N -1.55 | L -0.917 | Y -0.864 | A -1.08 | K -3 | I -0.792 | Q -1.14
R87: K 0.00471 | C -0.0638 | E -0.0603 | D -0.0278 | H -0.0676 | L -0.0416 | N -0.000681 | F -0.0196 | A -0.0289 | G -0.0274 | M -0.0864 | I -0.0226
